Measurements: the supplement of paper PMC9170038

system: MS2 coat protein; experiment: apparent KD of MS2 coat protein; higher = weaker reporter binding; conditions: Eterna round: R107; input ligand: theophylline 20 uM
Experimental: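 RNA-MaP round R107: designed RNA switches with theophylline, tryptophan, arginine or FMN aptamers are transcribed on-chip within common flanks. They are titrated with SNAP-549-labelled MS2 coat protein in RNA-MaP buffer (100 mM Tris pH 7.5, 80 mM KCl, 4 mM MgCl2), without ligand or with the indicated ligand. Median apparent KD per design.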

Sequence	apparent KD of MS2 coat protein
AAUGCUGCCAAGGAUUCCUCAUGAGCAGAUACCAGCUAGGAAACUAGCCCUUGGCAGCUGCAACAUGAGGAUCACCCAUGUAAUA [(T)'-(M)'-(T1)-(T2)-(M1)-(M2)_Design7]	94.2 nM
GCGGUCCACUUGGAUACCAGCAGAUUAAUAAACAUGAGGAUCACCCAUGUAAGCGCCUUGUGCCCUUGGCAGCCAGGGUGGUCAG [theeternabot_sameState_MS2_Theo_B_50]	136 nM
UCUUGGUCCGCAAGGACCGUGAGUUGCGAUACCAGCACGGUAACGUGCCCUUGGCAGCGCACAUGAGGAUCACCCAUGUGGUGUU [#1 Exclusion - Theophylline A Attempt #15 (HarryS)]	520 nM
GUUUAGAGCUCGGCCGCCACUCAAACAUGAGGAUCACCCAUGUAAAACAUGAGGAUCACCCAUGUGAGGACCGGGAGAAAUAAGA [Exclusion Tryptophan B GF7]	370 nM
UGUAUGUGAUUUGAUACCAGACCAGCUGGUGGUACCUGAGGAACACCCAGGUAGGUUUGGGUCCCUUGGCAGCAAAUCGCAUACU [SS Theo B #24 Ms7]	34.4 nM
GGACUAACCAGAAGGAGCGGCACGCAGAAACUGCAAAAUCCUCCGCACGAGGAUCACCCGUGUCAGGUAGGUCGCUGGUUAGUCG [ArgBX 28]	39.8 nM
UGUAAUGUGGGAAGGAGCGCAUACUUCACAUGAGGAUCACCCAUGUCAAGACGUGAGUCAGUGCAGGUAGGUCGCCUAGUUUAGA [Same State - Arginine B (Freestyle 18)]	75.4 nM
GCGCGGCGAGUGCGGCGUGUUCCGCUCCGUCGAGGACCGGUACGGCCGCCACUCGACAUGAGGAUCACCCAUGUCGCCGCGCGCG [Exclusion - Tryptophan A Attempt #3]	22.9 nM
AGUCACUCGAGGUGAUCUGACGAGUGGCAACGAGGACCGGUACGGCCGCCACUCGAAUAAACAUGAGGAUCACCCAUGUACAAAU [T''-M'-T'-T-MS2 - Design 11]	216 nM
UAUAUAUAAACAUGAGGAUCACCCAUGUAACGAGGACCGGUACGGCCGCCACUCGGCCGGCAAGGGAGAGGACGGGAAACCGUCG [ETA NP+V+V2 #27]	19.3 nM
GUAGCGACGACGGCCGCCACUCACAGGUGAGGGUAGACCAACCUUCACAUGAGGAUCACCCAUGUGAGGACCGGGUUGUCGCUAC [#12 Exclusion Tryptophan B]	109 nM
UGACAUUGCUGCGAUACCAGACAUGAGGAUCACCCAUGUACCAAGGUAACCGAAAGGCAUGUCCCUUGGCAGCGCAGCAAUGUCU [MAT - Exclusion Theophlline B - Mod of Eli - D13]	21 nM
GCCUAGCAUCGAAGGAGCGGGCAUUACGCGCGAAAGCGCGAUGCACGAGGAUCACCCGUGUCCCAGGUAGGUCGCGAUGCUAGGC [SSAB Alternative Aptamer #4 V+V2]	368 nM
GCGAUGGAGCGAAGGAGCGUGCUGGUACAUGAGGAUCACCCAUGUGAACCGCAGCGCUAAGCACAGGUAGGUCGCGCUCCAUCGC [EAB NP+V+V2 #14]	28.4 nM
UUUACAUGAGGAUCACCCAUGUGCCAUGAUACCAGACAUGAAAAUGUCCCUUGGCAGCAUGAGUGAUAUGCGUCGGAAACGACGC [Jundrov]	102 nM
GGAUAGAUAGGAGAUACCAGAUACAUCAACAUGAGGAUCACCCAUGUGUCUGCACUAAGUGUCCCUUGGCAGCUCGGAGAUCUGA [#16 Same State - Theophylline B]	33.7 nM
GGGAAAGAAUGUGAUACCAGAGAACCGGUCUCCAUCAAUAUACAUGAGGAUCACCCAUGUCUCCCUUGGCAGCACCAUCAUCAAA [Exclusion Theophylline B GF 27]	28.3 nM
AUAUAUACAUGAGGAUCACCCAUGUUAUUACGAGGACCGGUACGGCCGCCACUCGAUAGAGUAGAAGUAAAUUGUAAUUCAUGUU [JR_ExcTryptoA_Sub016]	15.6 nM

same assay, conditions: Eterna round: R107; input ligand: theophylline 2 mM

Sequence	apparent KD of MS2 coat protein
GGAUUCGGCACGGCCGCCACUGCGGUGGUGUGACAUGAGGAUCACCCAUGUUGUCAUGCGGCCCUUAGGACCGGGUGGCGUUUCC [#1 Exclusion - Tryptophan B Attempt #21 (HarryS)]	73.3 nM
GGCGCUGCGUCGGCCGCCACUAGCGGGUAAUGGGUGUACAUGAGGAUCACCCAUGUAAUAUGGCCUAGGACCGGGACGUGGCGCC [Moose]	465 nM
UCUGCCGCGGCUCCGAUCCUCCUGUAGUUCCGAGGACCGGUACGGCCGCCACUCGUAGCACAUGAGGAUCACCCAUGUCUUGCGG [Tiqurabira]	13 nM
UAAUAAGUACCGGUCCUCAGAUCCUCAUGACGAGGACCGGUACGGCCGCCACUCGAAACAUGAGGAUCACCCAUGUAAUAAUAAC [Brourdmod03]	45.2 nM
GGGCUCGGAGUGCGGCGUGUUCCGCUCCGUCGAGGACCGGUACGGCCGCCACUCGACAUGAGGAUCACCCAUGUCCGAGCGCGCG [#1 Exclusion - Tryptophan A Attempt #6 (HarryS)]	51.4 nM
UUAUAAGUACCGGUCCUCAGAUCCUCAUGACGAGGACCGGUACGGCCGCCACUCGAAACAUGAGGAUCACCCAUGUAAUAAUAAU [Brourdmod05]	27.7 nM
AUUAAGGAUAUGUAGAAGGCGGAGAAGAGACGAGGACCGGUACGGCCGCCACUCGUGUUAGUUAACAUGAGGAUCACCCAUGUAA [#06 Tryptophan A Same State]	112 nM
GGAUAGGACACGGCCGCCACUAGCUAGGAUACUAGCAACAUUUCCUCGCUUGAGGAUCACCCAAGUAGGACCGGGUGUCCUAUCG	476 nM
GGACUAACCAGAAGGAGCGGCACAAGCAGAAACUGCAAUCCUCCGCACGAGGAUCACCCGUGUCAGGUAGGUCGCUGGUUAGUCG [ArgBX 28]	80.4 nM
AGCAGCUGGUUUCUUUUCUUUACAGCUGCACGAGGACCGGUACGGCCGCCACUCGAGGACAUGAGGAUCACCCAUGUGCCGGUCG	49.7 nM
GGCCAAAAGGCGGCCGCCACUCAAGAGUAGCAUGGAAAGACAUGAGGAUCACCCAUGUAAAGAAAGAGGACCGGGCCAAAAGGCC	262 nM
CGGCCCUCACCUGAGGAUCACCCGGGUGAUACCAGCCUGGAAACAGGCCCUUGGCAGCACCAGGUCAUCAAAGAUGACCAAGCCG [TheoAX 26 #OpenEnded #AlternativeMS2]	2630 nM
GUUUAGAGCUCGGCCGCCACUCAAACAUGAGGAUCACCCAUGUAAAACAUGAGGAUCACCCAUGUGAGGACCGGGAGAAAUAAGA [Exclusion Tryptophan B GF7]	435 nM
UGUAUGUGAUUUGAUACCAGACCAGCUGGUGGUACCUGAGGAACACCCAGGUAGGUUUGGGUCCCUUGGCAGCAAAUCGCAUACU [SS Theo B #24 Ms7]	21.4 nM
GGACUAACCAGAAGGAGCGGCACGCAGAAACUGCAAAAUCCUCCGCACGAGGAUCACCCGUGUCAGGUAGGUCGCUGGUUAGUCG [ArgBX 28]	37.8 nM
UGUAAUGUGGGAAGGAGCGCAUACUUCACAUGAGGAUCACCCAUGUCAAGACGUGAGUCAGUGCAGGUAGGUCGCCUAGUUUAGA [Same State - Arginine B (Freestyle 18)]	88.9 nM
GCGCGGCGAGUGCGGCGUGUUCCGCUCCGUCGAGGACCGGUACGGCCGCCACUCGACAUGAGGAUCACCCAUGUCGCCGCGCGCG [Exclusion - Tryptophan A Attempt #3]	48.3 nM
AGUCACUCGAGGUGAUCUGACGAGUGGCAACGAGGACCGGUACGGCCGCCACUCGAAUAAACAUGAGGAUCACCCAUGUACAAAU [T''-M'-T'-T-MS2 - Design 11]	626 nM
